Each substance was assayed against His-tagged human IL-18BP (human) (UniProt O95998) (assay: AlphaLISA of free IL-18BP).

Substance	Kd
IL-18 variant SEQ ID NO: 59 with 20 kDa PEG (E6K, C38A, K53A, C68-20kPEG) (from UniProt Q14116 37-193) (ligand)	48.5 nM
IL-18 variant SEQ ID NO: 11 (E6K, V11I, C38A, K53A, C76A, C127A) (from UniProt Q14116 37-193) (ligand)	36.8 nM
IL-18 variant SEQ ID NO: 5 with 30 kDa PEG (E6K, V11I, C38A, K53A, T63A, C68A, C76A, C127A, M86C-30kPEG) (from UniProt Q14116 37-193) (ligand)	31.4 nM
IL-18 variant SEQ ID NO: 30 with 20 kDa PEG (E6K, V11I, C38A, K53A, T63A, C76A, C127A, C68-20kPEG) (from UniProt Q14116 37-193) (ligand)	19.7 nM
IL-18 variant SEQ ID NO: 230 (K8L, E6K, V11I, C38A, K53A, T63A, C76A, C127A) (from UniProt Q14116 37-193) (ligand)	0.14 nM
IL-18 variant SEQ ID NO: 59 (E6K, C38A, K53A) (from UniProt Q14116 37-193) (ligand)	36.4 nM
IL-18 variant SEQ ID NO: 9 (E6K, C38A, K53A, C68A, D98C) (from UniProt Q14116 37-193) (ligand)	82.7 nM
IL-18 variant SEQ ID NO: 213 (V11I, S36A, C38A, K53A, C76A, C127A) (from UniProt Q14116 37-193) (ligand)	1.12 nM
IL-18 variant SEQ ID NO: 232 (E6K, V11I, C38A, I49M, K53A, T63A, C76A, C127A) (from UniProt Q14116 37-193) (ligand)	25.8 nM
IL-18 variant SEQ ID NO: 8 (E6K, V11I, C38A, K53A, T63A, C68A, C76A, T95C, C127A) (from UniProt Q14116 37-193) (ligand)	61.1 nM
IL-18 variant SEQ ID NO: 28 (E6K, C38A, K53A, T63A, C76A, C127A) (from UniProt Q14116 37-193) (ligand)	44.4 nM
IL-18 variant SEQ ID NO: 215 (V11I, E31A, D37A, C38A, K53A, C76A, C127A) (from UniProt Q14116 37-193) (ligand)	2.12 nM
IL-18 variant SEQ ID NO: 221 (V11I, C38A, K53A, C76A, D110A, C127A) (from UniProt Q14116 37-193) (ligand)	0.71 nM
IL-18 variant SEQ ID NO: 5 (E6K, V11I, C38A, K53A, T63A, C68A, C76A, M86C, C127A) (from UniProt Q14116 37-193) (ligand)	181 nM
IL-18 variant SEQ ID NO: 229 (V11I, C38A, C76A, S105K, C127A) (from UniProt Q14116 37-193) (ligand)	0.05 nM
IL-18 variant SEQ ID NO: 59 with 10 kDa PEG (E6K, C38A, K53A, C68-10kPEG) (from UniProt Q14116 37-193) (ligand)	50.7 nM
IL-18 variant SEQ ID NO: 57 (E6K, C38S, K53A) (from UniProt Q14116 37-193) (ligand)	48.4 nM
IL-18 variant SEQ ID NO: 214 (V11I, D37A, C38A, K53A, C76A, C127A) (from UniProt Q14116 37-193) (ligand)	4.55 nM
IL-18 variant SEQ ID NO: 209 (F2A, V11I, C38A, K53A, C76A, C127A) (from UniProt Q14116 37-193) (ligand)	57.2 nM
IL-18 variant SEQ ID NO: 4 (E6K, C38A, K53A, C68A, M86C) (from UniProt Q14116 37-193) (ligand)	55.6 nM
IL-18 variant SEQ ID NO: 226 (V11I, C38A, S55R, C76A, C127A) (from UniProt Q14116 37-193) (ligand)	0.15 nM
IL-18 variant SEQ ID NO: 4 with 30 kDa PEG (E6K, C38A, K53A, C68A, M86C-30kPEG) (from UniProt Q14116 37-193) (ligand)	129 nM
IL-18 variant SEQ ID NO: 206 (V11I, C38A, K53A, S55A, C76A, C127A) (from UniProt Q14116 37-193) (ligand)	9.74 nM
IL-18 variant SEQ ID NO: 207 (V11I, C38A, M51G, K53A, C76A, C127A) (from UniProt Q14116 37-193) (ligand)	373 nM
IL-18 variant SEQ ID NO: 6 (E6K, V11I, C38A, K53A, T63A, C68A, C76A, D98C, C127A) (from UniProt Q14116 37-193) (ligand)	631 nM

Substance	Kd
IL-18 variant SEQ ID NO: 62 (E6K, C38A, K53A, C127A) (from UniProt Q14116 37-193) (ligand)	69.6 nM
IL-18 variant SEQ ID NO: 218 (V11I, C38A, K53A, C76A, C127A, D132A) (from UniProt Q14116 37-193) (ligand)	13.7 nM
IL-18 variant SEQ ID NO: 60 (E6K, C38Q, K53A) (from UniProt Q14116 37-193) (ligand)	24.8 nM
IL-18 variant SEQ ID NO: 223 (K8E, V11I, C38A, C76A, Q103R, C127A) (from UniProt Q14116 37-193) (ligand)	0.85 nM
IL-18 variant SEQ ID NO: 227 (V11I, C38A, S55T, C76A, C127A) (from UniProt Q14116 37-193) (ligand)	0.02 nM
IL-18 variant SEQ ID NO: 30 with 5 kDa PEG (E6K, V11I, C38A, K53A, T63A, C76A, C127A, C68-5kPEG) (from UniProt Q14116 37-193) (ligand)	19.7 nM
IL-18 variant SEQ ID NO: 224 (V11I, C38A, C76A, Q103K, C127A) (from UniProt Q14116 37-193) (ligand)	0.05 nM
IL-18 variant SEQ ID NO: 6 with 30 kDa PEG (E6K, V11I, C38A, K53A, T63A, C68A, C76A, C127A, D98C-30kPEG) (from UniProt Q14116 37-193) (ligand)	20.2 nM
IL-18 variant SEQ ID NO: 219 (V11I, C38A, K53A, C76A, G108A, C127A) (from UniProt Q14116 37-193) (ligand)	1.24 nM
IL-18 variant SEQ ID NO: 220 (V11I, C38A, K53A, C76A, H109A, C127A) (from UniProt Q14116 37-193) (ligand)	0.55 nM
IL-18 variant SEQ ID NO: 240 (E6R, V11I, C38A, K53A, T63A, C76A, C127A) (from UniProt Q14116 37-193) (ligand)	5.46 nM
IL-18 variant SEQ ID NO: 216 (V11I, C38A, D40A, K53A, C76A, C127A) (from UniProt Q14116 37-193) (ligand)	0.74 nM
IL-18 variant SEQ ID NO: 9 with 30 kDa PEG (E6K, C38A, K53A, C68A, D98C-30kPEG) (from UniProt Q14116 37-193) (ligand)	151 nM
IL-18 variant SEQ ID NO: 217 (V11I, C38A, N41A, K53A, C76A, C127A) (from UniProt Q14116 37-193) (ligand)	18.5 nM
IL-18 variant SEQ ID NO: 205 (V11I, C38A, K53A, T63A, C76A, C127A) (from UniProt Q14116 37-193) (ligand)	0.66 nM
IL-18 variant SEQ ID NO: 211 (V11I, T34A, C38A, K53A, C76A, C127A) (from UniProt Q14116 37-193) (ligand)	1.24 nM
IL-18 variant SEQ ID NO: 210 (V11I, E31A, C38A, K53A, C76A, C127A) (from UniProt Q14116 37-193) (ligand)	0.64 nM
IL-18 variant SEQ ID NO: 243 (Y1M, E6K, V11I, C38A, K53A, T63A, C76A, C127A) (from UniProt Q14116 38-193) (ligand)	2.25 nM
IL-18 variant SEQ ID NO: 204 (V11I, C38A, K53A, C76A, C127A) (from UniProt Q14116 37-193) (ligand)	8.86 nM
IL-18 variant SEQ ID NO: 212 (V11I, D35A, C38A, K53A, C76A, C127A) (from UniProt Q14116 37-193) (ligand)	2.88 nM
IL-18 variant SEQ ID NO: 222 (K8R, V11I, C38A, C76A, Q103E, C127A) (from UniProt Q14116 37-193) (ligand)	0.06 nM
IL-18 variant SEQ ID NO: 228 (V11I, C38A, C76A, S105I, C127A) (from UniProt Q14116 37-193) (ligand)	0.04 nM
IL-18 variant SEQ ID NO: 208 (V11I, C38A, K53A, D54A, C76A, C127A) (from UniProt Q14116 37-193) (ligand)	25.8 nM
IL-18 variant SEQ ID NO: 28 with 30 kDa PEG (E6K, C38A, K53A, T63A, C76A, C127A, C68-30kPEG) (from UniProt Q14116 37-193) (ligand)	40.7 nM
IL-18 variant SEQ ID NO: 225 (V11I, C38A, S55H, C76A, C127A) (from UniProt Q14116 37-193) (ligand)	0.08 nM

The substances below were run against Fc fused human IL-18BP isoform a (IL-18BPa) (human) (UniProt O95998) (assay: SPR, Fc-IL-18BPa captured, 1:1 fit).
Sequence of Fc fused human IL-18BP isoform a (IL-18BPa) (human) (O95998 31-194): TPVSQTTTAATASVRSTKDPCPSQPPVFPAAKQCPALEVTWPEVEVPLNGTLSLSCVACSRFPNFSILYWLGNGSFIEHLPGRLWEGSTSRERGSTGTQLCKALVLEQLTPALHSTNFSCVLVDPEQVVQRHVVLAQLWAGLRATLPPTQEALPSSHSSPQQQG

Substance	Kd	koff	kon
IL-18 variant SEQ ID NO: 30 with 20 kDa PEG (E6K, V11I, C38A, K53A, T63A, C76A, C127A, C68-20kPEG) (from UniProt Q14116 37-193) (ligand)	12 nM	0.00397 s⁻¹	330000 M⁻¹ s⁻¹
IL-18 variant SEQ ID NO: 59 (E6K, C38A, K53A) (from UniProt Q14116 37-193) (ligand)	2.05 nM	0.00301 s⁻¹	1.47e+06 M⁻¹ s⁻¹
IL-18 variant SEQ ID NO: 57 (E6K, C38S, K53A) (from UniProt Q14116 37-193) (ligand)	1.8 nM	0.00311 s⁻¹	1.63e+06 M⁻¹ s⁻¹
IL-18 variant SEQ ID NO: 61 with 30 kDa PEG (E6K, C38A, K53A, C76A, C68-30kPEG) (from UniProt Q14116 37-193) (ligand)	37.4 nM	0.00382 s⁻¹	102000 M⁻¹ s⁻¹
IL-18 variant SEQ ID NO: 62 (E6K, C38A, K53A, C127A) (from UniProt Q14116 37-193) (ligand)	1.96 nM	0.00315 s⁻¹	1.61e+06 M⁻¹ s⁻¹
IL-18 variant SEQ ID NO: 60 (E6K, C38Q, K53A) (from UniProt Q14116 37-193) (ligand)	1.7 nM	0.00308 s⁻¹	1.87e+06 M⁻¹ s⁻¹
IL-18 variant SEQ ID NO: 30 with 5 kDa PEG (E6K, V11I, C38A, K53A, T63A, C76A, C127A, C68-5kPEG) (from UniProt Q14116 37-193) (ligand)	4.75 nM	0.00386 s⁻¹	813000 M⁻¹ s⁻¹
IL-18 variant SEQ ID NO: 61 (E6K, C38A, K53A, C76A) (from UniProt Q14116 37-193) (ligand)	2.1 nM	0.0036 s⁻¹	1.74e+06 M⁻¹ s⁻¹
